# Test results: the supplement of paper PMC9112550, “Optimization of the antimicrobial peptide Bac7 by deep mutational scanning” (BMC Biology, 2022)
# Test system: Escherichia coli TOP10
# Assay: shrunken log2 fold change of peptide-encoding DNA abundance (4.5 h post-induction vs induction); higher = less antimicrobial activity (less host growth inhibition)
# Conditions: time post-induction: 4.5 h; library: site-saturation at positions 5, 18, 19, 20
# 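Further: peptides expressed intracellularly from a pBAD plasmid library in pooled LB shake-flask culture, induced with 0.3% L-arabinose, DNA abundance read by NGS, three biological replicates, DESeq2 with apeglm shrinkage.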
row,Sequence,shrunken log2 fold change
1,RRIRGRPPRLPRPRPRPMCQPRP,0.62
2,RRIRGRPPRLPRPRPRPVQLPRP,0.0748
3,RRIRSRPPRLPRPRPRPLNHPRP,-0.554
4,RRIRTRPPRLPRPRPRPQATPRP,0.119
5,RRIRARPPRLPRPRPRPQCIPRP,-0.125
6,RRIRNRPPRLPRPRPRPEPIPRP,0.0458
7,RRIRARPPRLPRPRPRPDSGPRP,0.18
8,RRIRERPPRLPRPRPRPYAQPRP,-0.384
9,RRIRPRPPRLPRPRPRPSCFPRP,-0.193
10,RRIRCRPPRLPRPRPRPDFDPRP,-0.0217
11,RRIRKRPPRLPRPRPRPLEFPRP,0.124
12,RRIRTRPPRLPRPRPRPDVFPRP,0.0603
13,RRIRPRPPRLPRPRPRPCVDPRP,-0.149
14,RRIRHRPPRLPRPRPRPAQHPRP,-0.14
15,RRIRERPPRLPRPRPRPLICPRP,-0.74
16,RRIRCRPPRLPRPRPRPFDPPRP,-0.0744
17,RRIRPRPPRLPRPRPRPILCPRP,0.179
18,RRIRWRPPRLPRPRPRPNGSPRP,0.0647
19,RRIRYRPPRLPRPRPRPPCDPRP,-0.196
20,RRIRTRPPRLPRPRPRPVWCPRP,-0.113
21,RRIRVRPPRLPRPRPRPHPHPRP,-0.161
22,RRIRYRPPRLPRPRPRPCKIPRP,-0.116
23,RRIRVRPPRLPRPRPRPCRHPRP,0.0429

row,Sequence,shrunken log2 fold change
1,RRIRHRPPRLPRPRPRPMAHPRP,0.0179
2,RRIRHRPPRLPRPRPRPHNSPRP,-0.692
3,RRIRSRPPRLPRPRPRPKDPPRP,0.226
4,RRIRPRPPRLPRPRPRPTNVPRP,-0.0325
5,RRIRARPPRLPRPRPRPDDHPRP,0.432
6,RRIRRRPPRLPRPRPRPLKIPRP,-0.0377
7,RRIRFRPPRLPRPRPRPMYEPRP,-0.309
8,RRIRTRPPRLPRPRPRPMVNPRP,0.0818
9,RRIRGRPPRLPRPRPRPRFFPRP,0.741
10,RRIRTRPPRLPRPRPRPFEMPRP,-0.376
11,RRIRTRPPRLPRPRPRPMTYPRP,-0.0748
12,RRIRLRPPRLPRPRPRPLEAPRP,0.41
13,RRIRVRPPRLPRPRPRPKGTPRP,-0.171
14,RRIRPRPPRLPRPRPRPWSPPRP,0.121
15,RRIRIRPPRLPRPRPRPMSQPRP,-0.119
16,RRIRYRPPRLPRPRPRPLRRPRP,0.17
17,RRIRCRPPRLPRPRPRPNPIPRP,-0.423
18,RRIRCRPPRLPRPRPRPDFNPRP,-0.242
19,RRIRIRPPRLPRPRPRPDNRPRP,-0.00277
20,RRIRVRPPRLPRPRPRPFNRPRP,-0.0378
21,RRIRMRPPRLPRPRPRPYAQPRP,-0.291
22,RRIRRRPPRLPRPRPRPNTGPRP,-0.121
23,RRIRLRPPRLPRPRPRPANWPRP,0.0804

row,Sequence,shrunken log2 fold change
1,RRIRDRPPRLPRPRPRPKHVPRP,0.139
2,RRIRFRPPRLPRPRPRPGSKPRP,-0.43
3,RRIRERPPRLPRPRPRPRHKPRP,-0.0631
4,RRIRDRPPRLPRPRPRPVVKPRP,0.0734
5,RRIRLRPPRLPRPRPRPLHRPRP,-0.226
6,RRIRARPPRLPRPRPRPGMYPRP,-0.111
7,RRIRKRPPRLPRPRPRPNQDPRP,-0.184
8,RRIRLRPPRLPRPRPRPVQWPRP,0.288
9,RRIRERPPRLPRPRPRPMPEPRP,-0.114
10,RRIRGRPPRLPRPRPRPVIVPRP,0.626
11,RRIRSRPPRLPRPRPRPEIQPRP,0.00278
12,RRIRYRPPRLPRPRPRPYKCPRP,-0.175
13,RRIRPRPPRLPRPRPRPASQPRP,0.0417
14,RRIRWRPPRLPRPRPRPPIPPRP,0.0875
15,RRIRLRPPRLPRPRPRPNLMPRP,-0.367
16,RRIRCRPPRLPRPRPRPMQAPRP,0.249
17,RRIRQRPPRLPRPRPRPVDQPRP,0.0619
18,RRIRNRPPRLPRPRPRPIVQPRP,-0.236
19,RRIRNRPPRLPRPRPRPYDCPRP,-0.109
20,RRIRVRPPRLPRPRPRPRKRPRP,0.572
21,RRIRPRPPRLPRPRPRPLRDPRP,0.522
22,RRIRSRPPRLPRPRPRPGTTPRP,0.132
23,RRIRERPPRLPRPRPRPPMVPRP,-0.45

row,Sequence,shrunken log2 fold change
1,RRIRIRPPRLPRPRPRPIWKPRP,-0.0131
2,RRIRSRPPRLPRPRPRPYWMPRP,-0.648
3,RRIRRRPPRLPRPRPRPMIRPRP,0.272
4,RRIRTRPPRLPRPRPRPTCLPRP,-0.216
5,RRIRWRPPRLPRPRPRPDHLPRP,0.08
6,RRIRMRPPRLPRPRPRPGQSPRP,1.23
7,RRIRDRPPRLPRPRPRPNKTPRP,-0.132
8,RRIRQRPPRLPRPRPRPSFQPRP,-0.467
9,RRIRERPPRLPRPRPRPRLMPRP,-0.103
10,RRIRFRPPRLPRPRPRPEPGPRP,0.534
11,RRIRYRPPRLPRPRPRPQCHPRP,-0.198
12,RRIRLRPPRLPRPRPRPDQVPRP,0.0207
13,RRIRDRPPRLPRPRPRPRYCPRP,-0.351
14,RRIRQRPPRLPRPRPRPMENPRP,-0.0199
15,RRIRERPPRLPRPRPRPKWGPRP,-0.0917
16,RRIRFRPPRLPRPRPRPCKDPRP,-0.198
17,RRIRQRPPRLPRPRPRPERQPRP,-0.0407
18,RRIRSRPPRLPRPRPRPMEEPRP,-0.01
19,RRIRKRPPRLPRPRPRPHMLPRP,-0.105
20,RRIRDRPPRLPRPRPRPVIWPRP,0.0861
21,RRIRFRPPRLPRPRPRPQDQPRP,-0.0978
22,RRIRKRPPRLPRPRPRPHKRPRP,0.434
